In this experiment the target is HLA-A*02:01 (Homo sapiens, UniProt P04439, D140Y/D185E/D98H/E176V/E277Q/G131W/G231S/I119V/I121R/I166T/I218V/L300P/L318F/N151K/N90K/P208A/P217A/Q86G/Q94H/R138H/R169H/T345S). In words: MHC binding assay (UV-ligand exchange, ELISA of exchange yield). To be noted: binding to HLA-A*02:01, UV-ligand exchange. Summed up:
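ELISA of β2m retained on streptavidin-captured, 100-fold diluted complexes (HRP anti-β2m, TMB, 450 nm) gives the yield. Complexes come from UV-triggered exchange of a photocleavable placeholder peptide for the candidate, which must bind to stop complex dissociation.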
As for “299 (YLLETSGNL; listed as Homo sapiens) [compound 299]”, the “Peptide exchange (MHC class I binding score, peptide exchange yield)” value (“Peptide exchange” below) is ““+++” (≥50 = +++)”.

Consider “300 (ALLGQTFSL; listed as Homo sapiens) [compound 300]”, for which the “Peptide exchange” value is recorded as ““+++” (≥50 = +++)”.

For “301 (FLVEDLVDSL; listed as Homo sapiens) [compound 301]”, the “Peptide exchange” value is ““+++” (≥50 = +++)”.

For “302 (ALLQEGEVYSA; listed as Homo sapiens) [compound 302]”, the “Peptide exchange” value was ““+++” (≥50 = +++)”.

For the substance “303 (AILPQLFMV; listed as Homo sapiens) [compound 303]”, the “Peptide exchange” value was ““++++” (≥75% = ++++)”.

As to “304 (MTLGQIYYL; listed as Homo sapiens) [compound 304]”, the “Peptide exchange” value is given as ““+++” (≥50 = +++)”.

With “305 (SIANFSEFYV; listed as Homo sapiens) [compound 305]”, the “Peptide exchange” value is ““++++” (≥75% = ++++)”.

On to “306 (ALVNVQIPL; listed as Homo sapiens) [compound 306]”, for which the “Peptide exchange” value is ““+++” (≥50 = +++)”.

On to “307 (ALPVSLPQI; listed as Homo sapiens) [compound 307]”, for which the “Peptide exchange” value is recorded as ““+++” (≥50 = +++)”.

“308 (SQYSGQLHEV; listed as Homo sapiens) [compound 308]”: the “Peptide exchange” value is given as ““+++” (≥50 = +++)”.

Turning to “309 (GLFDGVPTTA; listed as Homo sapiens) [compound 309]”, the “Peptide exchange” value is listed as ““+++” (≥50 = +++)”.

Turning to “310 (FLVDTPLARA; listed as Homo sapiens) [compound 310]”, the “Peptide exchange” value is given as ““++++” (≥75% = ++++)”.

For “311 (RLYTGMHTV; listed as Homo sapiens) [compound 311]”, the “Peptide exchange” value was ““+++” (≥50 = +++)”.

Take “312 (IISDLTIAL; listed as Homo sapiens) [compound 312]”: the “Peptide exchange” value was ““+++” (≥50 = +++)”.

With “313 (VLFDDELLMV; listed as Homo sapiens) [compound 313]”, the “Peptide exchange” value was ““+++” (≥50 = +++)”.

As for “314 (ALIAEGIALV; listed as Homo sapiens) [compound 314]”, the “Peptide exchange” value was ““+++” (≥50 = +++)”.

Consider “315 (YLQDVVEQA; listed as Homo sapiens) [compound 315]”, for which the “Peptide exchange” value is given as ““+++” (≥50 = +++)”.

Consider “316 (ILLERLWYV; listed as Homo sapiens) [compound 316]”, for which the “Peptide exchange” value is recorded as ““+++” (≥50 = +++)”.

Take “317 (SLAALVVHV; listed as Homo sapiens) [compound 317]”: the “Peptide exchange” value is on record as ““+++” (≥50 = +++)”.

Consider “318 (GLINTGVLSV; listed as Homo sapiens) [compound 318]”, for which the “Peptide exchange” value is recorded as ““++” (≥20% = ++)”.

As to “319 (SLEPQIQPV; listed as Homo sapiens) [compound 319]”, the “Peptide exchange” value is ““++” (≥20% = ++)”.

Turning to “320 (KMFEFVEPLL; listed as Homo sapiens) [compound 320]”, the “Peptide exchange” value was ““++++” (≥75% = ++++)”.

Take “321 (GLFEDVTQPGILL; listed as Homo sapiens) [compound 321]”: the “Peptide exchange” value was ““++++” (≥75% = ++++)”.

As for “322 (TLMTSLPAL; listed as Homo sapiens) [compound 322]”, the “Peptide exchange” value is recorded as ““+++” (≥50 = +++)”.

For “324 (FLYDEIEAEV; listed as Homo sapiens) [compound 324]”, the “Peptide exchange” value is ““+++” (≥50 = +++)”.

In the case of “325 (FIMPATVADATAV; listed as Homo sapiens) [compound 325]”, the “Peptide exchange” value is recorded as ““+++” (≥50 = +++)”.

With “326 (FLPEALDFV; listed as Homo sapiens) [compound 326]”, the “Peptide exchange” value is ““+++” (≥50 = +++)”.

Consider “327 (GLAPFTEGISFV; listed as Homo sapiens) [compound 327]”, for which the “Peptide exchange” value was ““+++” (≥50 = +++)”.

Consider “328 (ALNDQVFEI; listed as Homo sapiens) [compound 328]”, for which the “Peptide exchange” value is given as ““+++” (≥50 = +++)”.

Regarding “329 (FLVTLNNVEV; listed as Homo sapiens) [compound 329]”, the “Peptide exchange” value is given as ““++++” (≥75% = ++++)”.

For “330 (QLALKVEGV; listed as Homo sapiens) [compound 330]”, the “Peptide exchange” value is on record as ““+++” (≥50 = +++)”.

As for “331 (KVDTVWVNV; listed as Homo sapiens) [compound 331]”, the “Peptide exchange” value is ““+++” (≥50 = +++)”.

Regarding “332 (YLISELEAA; listed as Homo sapiens) [compound 332]”, the “Peptide exchange” value is on record as ““+++” (≥50 = +++)”.

“333 (FLPDANSSV; listed as Homo sapiens) [compound 333]”: the “Peptide exchange” value is ““++” (≥20% = ++)”.

In the case of “334 (TLTKVLVAL; listed as Homo sapiens) [compound 334]”, the “Peptide exchange” value is on record as ““+++” (≥50 = +++)”.

As for “335 (YSLSSVVTV; listed as Homo sapiens) [compound 335]”, the “Peptide exchange” value is recorded as ““+++” (≥50 = +++)”.

As for “336 (ILLTAIVQV; listed as Homo sapiens) [compound 336]”, the “Peptide exchange” value was ““+++” (≥50 = +++)”.

For “337 (HLLSELEAAPYL; listed as Homo sapiens) [compound 337]”, the “Peptide exchange” value is on record as ““++++” (≥75% = ++++)”.

Consider “339 (GLWEIENNPTVKA; listed as Homo sapiens) [compound 339]”, for which the “Peptide exchange” value was ““++++” (≥75% = ++++)”.

On to “340 (ALLSMTFPL; listed as Homo sapiens) [compound 340]”, for which the “Peptide exchange” value was ““++++” (≥75% = ++++)”.

As for “341 (SQIALNEKLVNL; listed as Homo sapiens) [compound 341]”, the “Peptide exchange” value is recorded as ““+++” (≥50 = +++)”.

Take “342 (HIYDKVMTV; listed as Homo sapiens) [compound 342]”: the “Peptide exchange” value is ““+++” (≥50 = +++)”.

With “343 (SLLEVNEESTV; listed as Homo sapiens) [compound 343]”, the “Peptide exchange” value is listed as ““+++” (≥50 = +++)”.

As for “344 (YLQDQHLLLTV; listed as Homo sapiens) [compound 344]”, the “Peptide exchange” value is ““+++” (≥50 = +++)”.

In the case of “345 (VIWKALIHL; listed as Homo sapiens) [compound 345]”, the “Peptide exchange” value was ““+++” (≥50 = +++)”.

In the case of “346 (LLDSKVPSV; listed as Homo sapiens) [compound 346]”, the “Peptide exchange” value is given as ““+++” (≥50 = +++)”.

Regarding “347 (SLFKHDPAAWEA; listed as Homo sapiens) [compound 347]”, the “Peptide exchange” value is ““++++” (≥75% = ++++)”.

Take “348 (ILLDVKTRL; listed as Homo sapiens) [compound 348]”: the “Peptide exchange” value is on record as ““++++” (≥75% = ++++)”.

With “349 (SLTEYLQNV; listed as Homo sapiens) [compound 349]”, the “Peptide exchange” value is recorded as ““++++” (≥75% = ++++)”.

“350 (ALLDVTHSELTV; listed as Homo sapiens) [compound 350]”: the “Peptide exchange” value was ““+++” (≥50 = +++)”.

Take “351 (SLIPNLRNV; listed as Homo sapiens) [compound 351]”: the “Peptide exchange” value is ““+++” (≥50 = +++)”.

For “352 (SLLELLHIYV; listed as Homo sapiens) [compound 352]”, the “Peptide exchange” value is reported as ““+++” (≥50 = +++)”.

“353 (YLFEMDSSL; listed as Homo sapiens) [compound 353]”: the “Peptide exchange” value is ““++” (≥20% = ++)”.

As to “354 (LILEGVDTV; listed as Homo sapiens) [compound 354]”, the “Peptide exchange” value is reported as ““++” (≥20% = ++)”.

Consider “355 (SIQQSIERLLV; listed as Homo sapiens) [compound 355]”, for which the “Peptide exchange” value is ““++” (≥20% = ++)”.

“356 (KLLGKLPEL; listed as Homo sapiens) [compound 356]”: the “Peptide exchange” value is ““+++” (≥50 = +++)”.

Consider “357 (SMHDLVLQV; listed as Homo sapiens) [compound 357]”, for which the “Peptide exchange” value was ““+++” (≥50 = +++)”.

Consider “358 (ALDEYTSEL; listed as Homo sapiens) [compound 358]”, for which the “Peptide exchange” value was ““++++” (≥75% = ++++)”.

Take “359 (YLLPESVDL; listed as Homo sapiens) [compound 359]”: the “Peptide exchange” value is reported as ““+++” (≥50 = +++)”.

Turning to “361 (ALYELEGTTV; listed as Homo sapiens) [compound 361]”, the “Peptide exchange” value was ““+++” (≥50 = +++)”.

With “362 (TLYGLSVLL; listed as Homo sapiens) [compound 362]”, the “Peptide exchange” value was ““+++” (≥50 = +++)”.

Source of the values: US10047131B2, “Peptides and combination of peptides for use in immunotherapy against ovarian cancer and other cancers” (immatics biotechnologies GmbH, priority 2015, dated 2018).
